Data: PMC3510486, “The structural basis for the interaction between the CAF1 nuclease and the NOT1 scaffold of the human CCR4–NOT deadenylase complex” (Nucleic Acids Research, 2012)

Target: T1, Hs CAF1, purified for crystallization (human, UniProt Q9UIV1-1 1-285)
T1 construct: human CAF1 (CNOT7); model holds residues Q10-S266 and G274-E280 (chain B); residues up to E280 are seen in the map, so it is probably the whole protein; also called CNOT7; source: E. coli Rosetta2, purified (GSTrap, PreScission cleavage, gel filtration)
T1 sequence (Q9UIV1 whole entry, the tested form may be a part): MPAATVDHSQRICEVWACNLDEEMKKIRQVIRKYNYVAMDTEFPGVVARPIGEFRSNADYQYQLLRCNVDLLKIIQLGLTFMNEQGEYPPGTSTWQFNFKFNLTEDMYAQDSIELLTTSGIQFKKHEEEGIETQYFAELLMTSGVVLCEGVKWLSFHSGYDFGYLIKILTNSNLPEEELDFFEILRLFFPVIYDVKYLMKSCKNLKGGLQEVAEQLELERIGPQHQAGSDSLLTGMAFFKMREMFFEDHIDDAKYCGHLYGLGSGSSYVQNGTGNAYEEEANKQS
Assay: crystal structure; complex of purified NOT1 MIF4G and CAF1 (1.2:1) isolated by gel filtration; hanging drop, 4°C, 0.1 M Tris-HCl pH 8.2, 16% PEG 8000, 0.2 M MgCl2, 0.2 M ammonium sulfate; 2.70 Å
Conditions: both partners purified

B1: MIF4G domain of Hs NOT1 (residues 1093-1317), purified for crystallization (domain or fragment, human, UniProt A5YKK6-1 1093-1317, looked up)
chain: ENIQEKIAFIFNNLSQSNMTQKVEELKETVKEEFMPWVSQYLVMKRVSIEPNFHSLYSNFLDTLKNPEFNKMVLNETYRNIKVLLTSDKAAANFSDRSLLKNLGHWLGMITLAKNKPILHTDLDVKSLLLEAYVKGQQELLYVVPFVAKVLESSIRSVVFRPPNPWTMAIMNVLAELHQEHDLKLNLKFEIEVLCKNLALDINELKPGNLLKDKDRLKNLDEQLS
notes: His6 fusion is PreScission-cleavable; also called NOT1 MIF4G domain; source: E. coli BL21 Codon Plus RIL, purified (Ni Sepharose IMAC, gel filtration)
B1: binds.
